Data as given in US10941182 (Amgen, dated 2021).
Starred links: 1 amine or outer side, 2 acyl side, 3 side chain; linkers in the order of their positions; H or OH if unused. Non-standard residues stand in square brackets, D forms with d. No end group written: not given here. rCha = cyclohexylalanine with ψ(CH2NH) reduced amide bond, C1CCC(C[C@@H](C[*:2])N[*:1])CC1; DrSer = D-serine with ψ(CH2NH) reduced amide bond, C(O[*:3])[C@H](C[*:2])N[*:1]; rSer = serine with ψ(CH2NH) reduced amide bond, C(O[*:3])[C@@H](C[*:2])N[*:1]; dBip = N[C@H](Cc1ccc(-c2ccccc2)cc1)C(=O)O; Oic = O=C(O)[C@@H]1C[C@@H]2CCCC[C@@H]2N1; Phe(4-Cl) = N[C@@H](Cc1ccc(Cl)cc1)C(=O)O; Phe(4-I) = N[C@@H](Cc1ccc(I)cc1)C(=O)O; hArg = N=C(N)NCCCC[C@H](N)C(=O)O; Cha = N[C@@H](CC1CCCCC1)C(=O)O; NMeL = CN[C@@H](CC(C)C)C(=O)O; αMeL = CC(C)C[C@](C)(N)C(=O)O; αMeP = C[C@@]1(C(=O)O)CCCN1; αMeS = C[C@](N)(CO)C(=O)O; Nle = CCCC[C@H](N)C(=O)O; Orn = NCCC[C@H](N)C(=O)O; BLeu = β-leucine

B1: apelin polypeptide SEQ ID NO: 35 (peptide)
peptide: Ac-[Orn]F[hArg][hArg]Q[hArg]P[hArg][Cha][αMeS]HKG[Oic][Nle]P[Phe(4-Cl)]-OH
B2: apelin polypeptide SEQ ID NO: 44 (peptide)
peptide: Ac-[Orn]F[hArg][hArg]Q[hArg]P[hArg][Cha][DrSer]HKG[Oic][Nle]P[Phe(4-Cl)]-OH
modifications: also: reduced amide bond at D-Ser10 (DrSer)
B3: apelin polypeptide SEQ ID NO: 714 (peptide)
peptide: [Orn]F[hArg][hArg]Q[hArg]P[hArg][Cha]SHKG[Oic][Nle]P[Phe(4-Cl)]
B4: apelin polypeptide SEQ ID NO: 34 (peptide)
peptide: Ac-[Orn]F[hArg][hArg]Q[hArg]P[hArg][αMeL]SHKG[Oic][Nle]P[Phe(4-Cl)]-OH
SMILES: CCCC[C@H](NC(=O)[C@@H]1C[C@@H]2CCCC[C@@H]2N1C(=O)CNC(=O)[C@H](CCCCN)NC(=O)[C@H](Cc1c[nH]cn1)NC(=O)[C@H](CO)NC(=O)[C@](C)(CC(C)C)NC(=O)[C@H](CCCCNC(=N)N)NC(=O)[C@@H]1CCCN1C(=O)[C@H](CCCCNC(=N)N)NC(=O)[C@H](CCC(N)=O)NC(=O)[C@H](CCCCNC(=N)N)NC(=O)[C@H](CCCCNC(=N)N)NC(=O)[C@H](Cc1ccccc1)NC(=O)[C@H](CCCN)NC(C)=O)C(=O)N1CCC[C@H]1C(=O)N[C@@H](Cc1ccc(Cl)cc1)C(=O)O
B5: apelin polypeptide SEQ ID NO: 46 (peptide)
peptide: Ac-[Orn]F[hArg][hArg]QRP[hArg][Cha]SHKGP[Phe(4-I)]P[dBip]-OH
SMILES: CC(=O)N[C@@H](CCCN)C(=O)N[C@@H](Cc1ccccc1)C(=O)N[C@@H](CCCCNC(=N)N)C(=O)N[C@@H](CCCCNC(=N)N)C(=O)N[C@@H](CCC(N)=O)C(=O)N[C@@H](CCCNC(=N)N)C(=O)N1CCC[C@H]1C(=O)N[C@@H](CCCCNC(=N)N)C(=O)N[C@@H](CC1CCCCC1)C(=O)N[C@@H](CO)C(=O)N[C@@H](Cc1c[nH]cn1)C(=O)N[C@@H](CCCCN)C(=O)NCC(=O)N1CCC[C@H]1C(=O)N[C@@H](Cc1ccc(I)cc1)C(=O)N1CCC[C@H]1C(=O)N[C@H](Cc1ccc(-c2ccccc2)cc1)C(=O)O
B6: apelin polypeptide SEQ ID NO: 47 (peptide)
peptide: Ac-[Orn]F[hArg][hArg]QRP[hArg][NMeL]SHKG[Oic][Phe(4-I)]P[dBip]-OH
SMILES: CC(=O)N[C@@H](CCCN)C(=O)N[C@@H](Cc1ccccc1)C(=O)N[C@@H](CCCCNC(=N)N)C(=O)N[C@@H](CCCCNC(=N)N)C(=O)N[C@@H](CCC(N)=O)C(=O)N[C@@H](CCCNC(=N)N)C(=O)N1CCC[C@H]1C(=O)N[C@@H](CCCCNC(=N)N)C(=O)N(C)[C@@H](CC(C)C)C(=O)N[C@@H](CO)C(=O)N[C@@H](Cc1c[nH]cn1)C(=O)N[C@@H](CCCCN)C(=O)NCC(=O)N1[C@H](C(=O)N[C@@H](Cc2ccc(I)cc2)C(=O)N2CCC[C@H]2C(=O)N[C@H](Cc2ccc(-c3ccccc3)cc2)C(=O)O)C[C@@H]2CCCC[C@@H]21
B7: apelin polypeptide SEQ ID NO: 30 (peptide)
peptide: Ac-[Orn]F[hArg][hArg]Q[hArg]P[hArg][BLeu]SHKG[Oic][Nle]P[Phe(4-Cl)]-OH
B8: apelin polypeptide SEQ ID NO: 37 (peptide)
peptide: Ac-[Orn]F[hArg][hArg]Q[hArg]P[hArg][Cha]SHKG[Oic][Nle][αMeP][Phe(4-Cl)]-OH
B9: apelin polypeptide SEQ ID NO: 43 (peptide)
peptide: Ac-[Orn]F[hArg][hArg]Q[hArg]P[hArg][Cha][rSer]HKG[Oic][Nle]P[Phe(4-Cl)]-OH
modifications: also: reduced amide bond at Ser10 (rSer)
B10: apelin polypeptide SEQ ID NO: 42 (peptide)
peptide: Ac-[Orn]F[hArg][hArg]Q[hArg]P[hArg][rCha]SHKG[Oic][Nle]P[Phe(4-Cl)]-OH
modifications: also: reduced amide bond (CH2NH) at residue 9

These binders were tested against T1, human APJ receptor (human, UniProt P35414 1-380) (assay: cell-based or functional assay).
T1 sequence (looked up): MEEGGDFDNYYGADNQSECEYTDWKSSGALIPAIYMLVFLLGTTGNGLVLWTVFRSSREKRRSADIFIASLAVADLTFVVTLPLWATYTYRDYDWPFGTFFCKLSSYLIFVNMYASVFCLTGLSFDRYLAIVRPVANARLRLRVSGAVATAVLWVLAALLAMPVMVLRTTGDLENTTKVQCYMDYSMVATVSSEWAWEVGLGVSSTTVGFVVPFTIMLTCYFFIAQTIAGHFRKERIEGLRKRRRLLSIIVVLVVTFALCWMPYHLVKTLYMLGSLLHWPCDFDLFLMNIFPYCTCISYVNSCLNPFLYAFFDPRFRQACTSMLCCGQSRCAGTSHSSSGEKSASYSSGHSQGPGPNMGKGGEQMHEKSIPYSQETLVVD
B1 was tested, and the “EC50 Human APJ Receptor” value was 0.0861 nM. For B2, the “EC50 Human APJ Receptor” value was 0.997 nM. For B3, the “EC50 Human APJ Receptor” value was 0.168 nM. With B4 the “EC50 Human APJ Receptor” value was 0.0519 nM. In the case of B5, the “EC50 Human APJ Receptor” value is reported as 0.389 nM. For B6, the “EC50 Human APJ Receptor” value was 0.416 nM. With B7 the “EC50 Human APJ Receptor” value was 0.166 nM. With B8 the “EC50 Human APJ Receptor” value was 0.0672 nM. For B9, the “EC50 Human APJ Receptor” value was 0.393 nM. With B10 the “EC50 Human APJ Receptor” value was 0.0449 nM.

What follows are binders tested against T2, rat APJ receptor (rat, UniProt Q9JHG3 1-377) (assay: cell-based or functional assay).
T2 sequence (looked up): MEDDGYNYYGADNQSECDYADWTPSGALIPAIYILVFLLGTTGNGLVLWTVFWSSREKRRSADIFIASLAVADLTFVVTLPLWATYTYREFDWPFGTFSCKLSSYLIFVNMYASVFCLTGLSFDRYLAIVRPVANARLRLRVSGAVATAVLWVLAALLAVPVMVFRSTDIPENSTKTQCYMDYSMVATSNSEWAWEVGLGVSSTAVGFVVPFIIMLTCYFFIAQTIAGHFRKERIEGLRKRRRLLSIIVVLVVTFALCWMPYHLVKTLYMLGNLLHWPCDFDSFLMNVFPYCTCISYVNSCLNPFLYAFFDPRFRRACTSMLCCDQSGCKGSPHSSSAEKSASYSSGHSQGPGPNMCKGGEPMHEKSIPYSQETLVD
B1 was tested, and the “EC50 Rat APJ Receptor” value was 0.185 nM. With B2 the “EC50 Rat APJ Receptor” value was 3.79 nM. B3 was tested, and the “EC50 Rat APJ Receptor” value was 0.271 nM. In the case of B4, the “EC50 Rat APJ Receptor” value is reported as 0.193 nM. In the case of B5, the “EC50 Rat APJ Receptor” value is reported as 1.04 nM. B6 was tested, and the “EC50 Rat APJ Receptor” value was 0.63 nM. With B7 the “EC50 Rat APJ Receptor” value was 0.456 nM. B8 was tested, and the “EC50 Rat APJ Receptor” value was 0.136 nM. B9 was tested, and the “EC50 Rat APJ Receptor” value was 1.83 nM. In the case of B10, the “EC50 Rat APJ Receptor” value is reported as 0.247 nM.
